B2: Rubisco-strep (H. neapolitanus CbbL8S8) (complex)
chain 1: MAVKKYSAGVKEYRQTYWMPEYTPLDSDILACFKITPQPGVDREEAAAAVAAESSTGTWTTVWTDLLTDMDYYKGRAYRIEDVPGDDAAFYAFIAYPIDLFEEGSVVNVFTSLVGNVFGFKAVRGLRLEDVRFPLAYVKTCGGPPHGIQVERDKMNKYGRPLLGCTIKPKLGLSAKNYGRAVYECLRGGLDFTKDDENINSQPFMRWRDRFLFVQDATETAEAQTGERKGHYLNVTAPTPEEMYKRAEFAKEIGAPIIMHDYITGGFTANTGLAKWCQDNGVLLHIHRAMHAVIDRNPNHGIHFRVLTKILRLSGGDHLHTGTVVGKLEGDRASTLGWIDLLRESFIPEDRSRGIFFDQDWGSMPGVFAVASGGIHVWHMPALVNIFGDDSVLQFGGGTLGHPWGNAAGAAANRVALEACVEARNQGRDIEKEGKEILTAAAQHSPELKIAMETWKEIKFEFDTVDKLDTQNR
chain 2: MAEMQDYKQSLKYETFSYLPPMNAERIRAQIKYAIAQGWSPGIEHVEVKNSMNQYWYMWKLPFFGEQNVDNVLAEIEACRSAYPTHQVKLVAYDNYAQSLGLAFVVYRGN
notes: Rubisco large subunit CbbL, H. neapolitanus, alpha-carboxysomal Form IA; residues V3-E457 modelled in the cryo-EM maps; Rubisco small subunit CbbS, H. neapolitanus; residues M4-N110 modelled in the cryo-EM maps; Printed both as 'strep-Rubisco' and 'Rubisco-strep'; plasmid in Dataset S4; also called strep-Rubisco; WT; source: E. coli, coexpressed with GroEL/ES, purified (Strep-tag purification); …
B5: NTD_(1-53)-sfGFP (domain or fragment, H. neapolitanus, UniProt O85042 1-53, looked up)
chain: MNTRNTRSKQRAPFGVSSSVKPRLDLIEQAPNPAYDRHPACITLPERTCRHPL
notes: first 53 residues of CsoSCA (unstructured N-terminal peptide), H. neapolitanus; Fused to monomeric superfolder GFP; Linker, if any, is in Dataset S4; also called NTD_(1-53)-sfGFP-His; source: E. coli, purified (His-tag purification); not shown: sfGFP, C-terminal, kept; His tag, C-terminal, kept

Data set [1] deals with T1, CbbS, Rubisco small subunit (as in Rubisco-strep) (H. neapolitanus, UniProt P45686 1-110).
T1 construct: Rubisco small subunit CbbS, H. neapolitanus; residues M4-N110 modelled; Subunit of m2, written on its own for the contacts in the cryo-EM structure; source: E. coli, coexpressed with GroEL/ES, purified as Rubisco-strep
T1 sequence: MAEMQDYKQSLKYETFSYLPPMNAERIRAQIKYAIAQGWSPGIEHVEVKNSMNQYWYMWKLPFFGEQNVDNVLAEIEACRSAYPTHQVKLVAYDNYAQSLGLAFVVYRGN
The data set can be described thus: cryo-EM structure; 0.5 μM Rubisco-strep with 0.5 mM NTD_(1-50) peptide; 25 mM Tris pH 7.5, 80 mM NaCl, 2% glycerol; two reconstructions (State-1, State-2), D4 symmetry. The settings on record: both partners purified.

Data set [2] concerns the target B2. The data set is described as above. The settings on record: both partners purified.
The data set “NTD_(1-53)-sfGFP” has as its target B5. The data set can be described thus: BLI; 5 μg/mL NTD_(1-53)-sfGFP-His (or point mutant) immobilised on Ni-NTA biosensors; strep-Rubisco (WT 250–3.9 nM, or mutant) as prey; 25 mM Tris pH 7.5, 70 mM NaCl, 0.01% Triton X100; 1:2 (Bivalent Analyte) binding model. The settings on record: both partners purified. For orientation: In BLI a coated tip is dipped into the sample, and binding shifts an interference pattern.

For another data set, the target named is T2, NTD_(1-53)-sfGFP P22A (H. neapolitanus, UniProt O85042 1-53, P22A).
T2 construct: first 53 residues of CsoSCA, H. neapolitanus, with P22A; source: E. coli, purified (His-tag purification); not shown: sfGFP, C-terminal, kept; His tag, C-terminal, kept
T2 sequence (looked up): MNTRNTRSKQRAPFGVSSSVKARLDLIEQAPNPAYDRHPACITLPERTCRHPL
The data set is described as above. As to conditions: both partners purified.

The next data set has as its target T3, NTD_(1-53)-sfGFP R23A (H. neapolitanus, UniProt O85042 1-53, R23A).
T3 construct: first 53 residues of CsoSCA, H. neapolitanus, with R23A; source: E. coli, purified (His-tag purification); not shown: sfGFP, C-terminal, kept; His tag, C-terminal, kept
T3 sequence (looked up): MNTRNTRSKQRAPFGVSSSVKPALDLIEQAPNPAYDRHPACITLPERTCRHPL
Described as above. The settings on record: both partners purified.

Data set [3] deals with the molecule itself. Nature of the data set: cryo-EM structure; 0.5 μM Rubisco-strep with 0.5 mM NTD_(1-50) peptide; 25 mM Tris pH 7.5, 80 mM NaCl, 2% glycerol; two reconstructions (State-1, State-2), D4 symmetry.
For data set [4], the target named is B2. The data set can be described thus: SEC; NTD_(1-53)-sfGFP and Rubisco-strep mixed 32:1 (NTD_(1-53)-sfGFP:CbbL8S8); Superose 6 Increase 3.2/300; 20 mM Tris pH 7.5, 150 mM NaCl, 4 °C; A280 and A485. As to conditions: both partners purified.
The target in data set [5] is T4, Rubisco-strep (CbbL8S8) from Halothiobacillus neapolitanus (H. neapolitanus, UniProt O85040 1-473; P45686 1-110).
T4 construct: Rubisco large subunit CbbL, Halothiobacillus neapolitanus; Rubisco small subunit CbbS, Halothiobacillus neapolitanus; also called strep-Rubisco; source: E. coli (BL21-A1 or BW25113, see Dataset S4), co-expressed with GroEL/ES, purified (StrepTrap); copies: 8 + 8
Nature of the data set: SEC; Superose 6 Increase 3.2/300, 20 mM Tris pH 7.5, 150 mM NaCl, 4 °C; NTD1-53-sfGFP:CbbL8S8 mixed 32:1; A280 and A485 monitored. The settings on record: both partners purified.

B1: NTD_(1-50) peptide (CsoSCA residue 1-50) (peptide, UniProt O85042 1-50, looked up)
peptide: MNTRNTRSKQRAPFGVSSSVKPRLDLIEQAPNPAYDRHPACITLPERTCR
notes: first 50 residues of CsoSCA, H. neapolitanus; also called NTD peptide; N50 peptide
Usually stoichiometry N stands for the number of molecules, sites or subunits per partner or assembly. Regarding B1, the binding result in data set [1] was “binds”. The “stoichiometry N” value in data set [2] was 8.
As for B2, in the data set with NTD_(1-53)-sfGFP, the “KD2 (second set of the 1:2 fit)” value was 80 ± 1 nM, the “KD (first set of the 1:2 fit)” value worked out at 33 ± 0.4 nM, the “koff2 (second set of the 1:2 fit)” value is 0.11 s⁻¹ and the “koff (first set of the 1:2 fit)” value stood at 0.0069 s⁻¹. In the data set with NTD_(1-53)-sfGFP, the “kon2 (second set of the 1:2 fit)” value was determined as 1.4e+06 M⁻¹ s⁻¹ and the “kon (first set of the 1:2 fit)” value was found to be 210000 M⁻¹ s⁻¹. In the data set with NTD_(1-53)-sfGFP P22A, the “KD2 (second set of the 1:2 fit)” value turned out to be 6.5 ± 0.4 µM, the “KD (first set of the 1:2 fit)” value amounted to 18000 nM, the “koff2 (second set of the 1:2 fit)” value was found to be 0.44 s⁻¹ and the “koff (first set of the 1:2 fit)” value was 0.044 s⁻¹. Further, in the data set with NTD_(1-53)-sfGFP P22A, the “kon2 (second set of the 1:2 fit)” value is 68000 M⁻¹ s⁻¹ and the “kon (first set of the 1:2 fit)” value was determined as 2400 M⁻¹ s⁻¹. Further, in the data set with NTD_(1-53)-sfGFP R23A, the “KD2 (second set of the 1:2 fit)” value is 130 ± 2 nM, the “KD (first set of the 1:2 fit)” value was found to be 17 ± 0.2 nM, the “koff2 (second set of the 1:2 fit)” value stood at 0.061 s⁻¹ and the “koff (first set of the 1:2 fit)” value stood at 0.0033 s⁻¹. For the same molecule, in the data set with NTD_(1-53)-sfGFP R23A, the “kon2 (second set of the 1:2 fit)” value worked out at 460000 M⁻¹ s⁻¹ and the “kon (first set of the 1:2 fit)” value came out at 190000 M⁻¹ s⁻¹.

B3: CbbL, Rubisco large subunit (as in Rubisco-strep) (natural protein, H. neapolitanus)
chain: MAVKKYSAGVKEYRQTYWMPEYTPLDSDILACFKITPQPGVDREEAAAAVAAESSTGTWTTVWTDLLTDMDYYKGRAYRIEDVPGDDAAFYAFIAYPIDLFEEGSVVNVFTSLVGNVFGFKAVRGLRLEDVRFPLAYVKTCGGPPHGIQVERDKMNKYGRPLLGCTIKPKLGLSAKNYGRAVYECLRGGLDFTKDDENINSQPFMRWRDRFLFVQDATETAEAQTGERKGHYLNVTAPTPEEMYKRAEFAKEIGAPIIMHDYITGGFTANTGLAKWCQDNGVLLHIHRAMHAVIDRNPNHGIHFRVLTKILRLSGGDHLHTGTVVGKLEGDRASTLGWIDLLRESFIPEDRSRGIFFDQDWGSMPGVFAVASGGIHVWHMPALVNIFGDDSVLQFGGGTLGHPWGNAAGAAANRVALEACVEARNQGRDIEKEGKEILTAAAQHSPELKIAMETWKEIKFEFDTVDKLDTQNR
notes: Rubisco large subunit CbbL, H. neapolitanus; residues V3-E457 modelled; Subunit of m2, written on its own for the contacts in the cryo-EM structure; also called CbbLA; CbbLB; source: E. coli, coexpressed with GroEL/ES, purified as Rubisco-strep
As to B3, the binding result in data set [3] was “binds”.

B4: Rubisco Y72A (complex, H. neapolitanus)
chain 1: MAVKKYSAGVKEYRQTYWMPEYTPLDSDILACFKITPQPGVDREEAAAAVAAESSTGTWTTVWTDLLTDMDAYKGRAYRIEDVPGDDAAFYAFIAYPIDLFEEGSVVNVFTSLVGNVFGFKAVRGLRLEDVRFPLAYVKTCGGPPHGIQVERDKMNKYGRPLLGCTIKPKLGLSAKNYGRAVYECLRGGLDFTKDDENINSQPFMRWRDRFLFVQDATETAEAQTGERKGHYLNVTAPTPEEMYKRAEFAKEIGAPIIMHDYITGGFTANTGLAKWCQDNGVLLHIHRAMHAVIDRNPNHGIHFRVLTKILRLSGGDHLHTGTVVGKLEGDRASTLGWIDLLRESFIPEDRSRGIFFDQDWGSMPGVFAVASGGIHVWHMPALVNIFGDDSVLQFGGGTLGHPWGNAAGAAANRVALEACVEARNQGRDIEKEGKEILTAAAQHSPELKIAMETWKEIKFEFDTVDKLDTQNR
chain 2: MAEMQDYKQSLKYETFSYLPPMNAERIRAQIKYAIAQGWSPGIEHVEVKNSMNQYWYMWKLPFFGEQNVDNVLAEIEACRSAYPTHQVKLVAYDNYAQSLGLAFVVYRGN
notes: Rubisco large subunit CbbL, H. neapolitanus, with Y72A (the text places Y72 on CbbL); Rubisco small subunit CbbS, H. neapolitanus; Plasmid in Dataset S4; source: E. coli, coexpressed with GroEL/ES, purified (Strep-tag purification); copies: 8 + 8
With B4, in the data set with NTD_(1-53)-sfGFP, the “KD2 (second set of the 1:2 fit)” value came out at 820 ± 11 nM, the “KD (first set of the 1:2 fit)” value turned out to be 320 ± 6 nM, the “koff2 (second set of the 1:2 fit)” value amounted to 0.15 s⁻¹ and the “koff (first set of the 1:2 fit)” value was found to be 0.0089 s⁻¹. Besides, in the data set with NTD_(1-53)-sfGFP, the “kon2 (second set of the 1:2 fit)” value was determined as 180000 M⁻¹ s⁻¹ and the “kon (first set of the 1:2 fit)” value amounted to 28000 M⁻¹ s⁻¹.
On to B5, for which the binding result in data set [4] is “binds”.

B6: Rubisco D99A (complex, H. neapolitanus)
chain 1: MAVKKYSAGVKEYRQTYWMPEYTPLDSDILACFKITPQPGVDREEAAAAVAAESSTGTWTTVWTDLLTDMDYYKGRAYRIEDVPGDDAAFYAFIAYPIALFEEGSVVNVFTSLVGNVFGFKAVRGLRLEDVRFPLAYVKTCGGPPHGIQVERDKMNKYGRPLLGCTIKPKLGLSAKNYGRAVYECLRGGLDFTKDDENINSQPFMRWRDRFLFVQDATETAEAQTGERKGHYLNVTAPTPEEMYKRAEFAKEIGAPIIMHDYITGGFTANTGLAKWCQDNGVLLHIHRAMHAVIDRNPNHGIHFRVLTKILRLSGGDHLHTGTVVGKLEGDRASTLGWIDLLRESFIPEDRSRGIFFDQDWGSMPGVFAVASGGIHVWHMPALVNIFGDDSVLQFGGGTLGHPWGNAAGAAANRVALEACVEARNQGRDIEKEGKEILTAAAQHSPELKIAMETWKEIKFEFDTVDKLDTQNR
chain 2: MAEMQDYKQSLKYETFSYLPPMNAERIRAQIKYAIAQGWSPGIEHVEVKNSMNQYWYMWKLPFFGEQNVDNVLAEIEACRSAYPTHQVKLVAYDNYAQSLGLAFVVYRGN
notes: Rubisco large subunit CbbL, H. neapolitanus, with D99A (the text places D99 on CbbL); Rubisco small subunit CbbS, H. neapolitanus; Plasmid in Dataset S4; source: E. coli, coexpressed with GroEL/ES, purified (Strep-tag purification); copies: 8 + 8
For B6, in the data set with NTD_(1-53)-sfGFP, the “KD2 (second set of the 1:2 fit)” value is 1100 ± 14 nM, the “KD (first set of the 1:2 fit)” value came to 400 ± 10 nM, the “koff2 (second set of the 1:2 fit)” value turned out to be 0.15 s⁻¹ and the “koff (first set of the 1:2 fit)” value stood at 0.0059 s⁻¹. Also, in the data set with NTD_(1-53)-sfGFP, the “kon2 (second set of the 1:2 fit)” value was 130000 M⁻¹ s⁻¹ and the “kon (first set of the 1:2 fit)” value is 15000 M⁻¹ s⁻¹.

B7: NTD1-53-sfGFP-His, first 53 residues of CsoSCA fused to superfolder GFP (domain or fragment, H. neapolitanus, UniProt O85042 1-53, looked up)
chain: MNTRNTRSKQRAPFGVSSSVKPRLDLIEQAPNPAYDRHPACITLPERTCRHPL
notes: first 53 residues of CsoSCA, Halothiobacillus neapolitanus; source: E. coli (see Dataset S4), purified (His-tag purification)
As to B7, the binding result in data set [5] is recorded as “binds”.

These data come from article PMC10614612, “Identification of a carbonic anhydrase–Rubisco complex within the alpha-carboxysome” (Proceedings of the National Academy of Sciences of the …, 2023).
